Data on 5 molecules can be found in paper PMC8063757, “The DNA-binding protein HU is a molecular glue that attaches bacteria to extracellular DNA in biofilms” (The Journal of Biological Chemistry, 2020).

For data set [1], the target named is T1, LysrHU-B (Escherichia coli K-12, UniProt P0ACF4 1-90, K83A;K86A).
T1 sequence: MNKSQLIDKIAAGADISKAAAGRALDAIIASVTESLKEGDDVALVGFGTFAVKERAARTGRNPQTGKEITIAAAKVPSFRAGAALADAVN
Nature of the data set: EMSA; EMSA on 0.7% or 1% agarose gels, EtBr stain; binding buffer, salt, pH and temperature not stated. The following applies: protein: recombinant; chain copies: 2; label: none (EtBr stain); four-way junction of 4 strands, equimolar, one copy each; strands as printed are not perfectly complementary. A general note: In EMSA bound probe runs differently from free probe, usually more slowly.

The target in data set [2] is T2, HU-B K86A (Escherichia coli K-12, UniProt P0ACF4 1-90, K86A).
T2 sequence: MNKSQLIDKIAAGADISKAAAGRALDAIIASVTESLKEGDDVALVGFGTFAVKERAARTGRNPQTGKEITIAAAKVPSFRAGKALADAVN
The data set is described as above. The settings on record: protein: recombinant; chain copies: 2; label: none (EtBr stain); four-way junction of 4 strands, equimolar, one copy each; strands as printed are not perfectly complementary.

The target of data set [3] is T3, F79W HU-B (Escherichia coli K-12, UniProt P0ACF4 1-90, F79W).
T3 sequence: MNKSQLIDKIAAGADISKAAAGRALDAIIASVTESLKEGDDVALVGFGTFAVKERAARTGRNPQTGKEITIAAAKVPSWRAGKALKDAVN
The description is as above. The following applies: protein: recombinant; chain copies: 2; label: none (EtBr stain); four-way junction of 4 strands, equimolar, one copy each; strands as printed are not perfectly complementary.

The target of data set [4] is HU-A K86A (Escherichia coli K-12, UniProt P0ACF0 1-90, K86A). The data set is described as above. The settings on record: protein: recombinant; chain copies: 2; label: none (EtBr stain); four-way junction of 4 strands, equimolar, one copy each; strands as printed are not perfectly complementary.
Data set [5] has as its target LoodLysrHU-A (Escherichia coli K-12, UniProt P0ACF0 1-51+=SGGGGSGGGGS+75-90, K83A;K86A;internal_change). The description is as above. The settings on record: protein: recombinant; chain copies: 2; label: none (EtBr stain); four-way junction of 4 strands, equimolar, one copy each; strands as printed are not perfectly complementary.
Data set [6] deals with LoodHU-A K86A (Escherichia coli K-12, UniProt P0ACF0 1-51+=SGGGGSGGGGS+75-90, K86A;internal_change). The data set is described as above. The settings on record: protein: recombinant; chain copies: 2; label: none (EtBr stain); four-way junction of 4 strands, equimolar, one copy each; strands as printed are not perfectly complementary.
The target of data set [7] is T4, LoodHU-B (Escherichia coli K-12, UniProt P0ACF4 1-51+=SGGGGSGGGGS+75-90, internal_change).
T4 sequence: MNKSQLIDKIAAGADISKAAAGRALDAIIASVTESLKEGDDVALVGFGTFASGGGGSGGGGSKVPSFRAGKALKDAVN
The data set is described as above. The settings on record: protein: recombinant; chain copies: 2; label: none (EtBr stain); four-way junction of 4 strands, equimolar, one copy each; strands as printed are not perfectly complementary.

Data set [8] has as its target T5, F47W HU-B (Escherichia coli K-12, UniProt P0ACF4 1-90, F47W).
T5 sequence: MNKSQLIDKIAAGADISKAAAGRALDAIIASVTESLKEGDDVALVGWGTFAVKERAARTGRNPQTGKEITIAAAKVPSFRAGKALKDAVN
The description is as above. The settings on record: protein: recombinant; chain copies: 2; label: none (EtBr stain); four-way junction of 4 strands, equimolar, one copy each; strands as printed are not perfectly complementary.

The target in data set [9] is LoodHU-A K83A (Escherichia coli K-12, UniProt P0ACF0 1-51+=SGGGGSGGGGS+75-90, K83A;internal_change). The data set is described as above. The settings on record: protein: recombinant; chain copies: 2; label: none (EtBr stain); four-way junction of 4 strands, equimolar, one copy each; strands as printed are not perfectly complementary.
The target of data set [10] is LysrHU-A (Escherichia coli K-12, UniProt P0ACF0 1-90, K83A;K86A). The data set is described as above. The following applies: protein: recombinant; chain copies: 2; label: none (EtBr stain); four-way junction of 4 strands, equimolar, one copy each; strands as printed are not perfectly complementary.
Data set [11] addresses T6, LoodHU-B K83A (Escherichia coli K-12, UniProt P0ACF4 1-51+=SGGGGSGGGGS+75-90, K83A;internal_change).
T6 sequence: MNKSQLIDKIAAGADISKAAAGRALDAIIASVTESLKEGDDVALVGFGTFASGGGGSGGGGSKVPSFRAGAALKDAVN
The description is as above. The settings on record: protein: recombinant; chain copies: 2; label: none (EtBr stain); four-way junction of 4 strands, equimolar, one copy each; strands as printed are not perfectly complementary.

Data set [12] has as its target T7, HU-B K83A (Escherichia coli K-12, UniProt P0ACF4 1-90, K83A).
T7 sequence: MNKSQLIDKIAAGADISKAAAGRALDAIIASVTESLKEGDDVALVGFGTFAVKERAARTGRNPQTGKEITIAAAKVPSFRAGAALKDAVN
The data set is described as above. The settings on record: protein: recombinant; chain copies: 2; label: none (EtBr stain); four-way junction of 4 strands, equimolar, one copy each; strands as printed are not perfectly complementary.

In data set [13] the target is T8, HU-B (Escherichia coli K-12, UniProt P0ACF4 1-90).
T8 sequence: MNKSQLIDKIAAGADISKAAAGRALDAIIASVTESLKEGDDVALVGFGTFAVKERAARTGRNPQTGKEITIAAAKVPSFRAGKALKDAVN
The data set is described as above. The settings on record: protein: recombinant; chain copies: 2; label: none (EtBr stain); four-way junction of 4 strands, equimolar, one copy each; strands as printed are not perfectly complementary.

Data set [14] addresses T9, LoodLysrHU-B (Escherichia coli K-12, UniProt P0ACF4 1-51+=SGGGGSGGGGS+75-90, K83A;K86A;internal_change).
T9 sequence: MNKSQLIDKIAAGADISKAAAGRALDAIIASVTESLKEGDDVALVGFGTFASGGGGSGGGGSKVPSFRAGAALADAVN
The data set is described as above. The following applies: protein: recombinant; chain copies: 2; label: none (EtBr stain); four-way junction of 4 strands, equimolar, one copy each; strands as printed are not perfectly complementary.

The target in data set [15] is HU-A K83A (Escherichia coli K-12, UniProt P0ACF0 1-90, K83A). The description is as above. The settings on record: protein: recombinant; chain copies: 2; label: none (EtBr stain); four-way junction of 4 strands, equimolar, one copy each; strands as printed are not perfectly complementary.
Data set [16] concerns the target T10, LoodHU-B K86A (Escherichia coli K-12, UniProt P0ACF4 1-51+=SGGGGSGGGGS+75-90, K86A;internal_change).
T10 sequence: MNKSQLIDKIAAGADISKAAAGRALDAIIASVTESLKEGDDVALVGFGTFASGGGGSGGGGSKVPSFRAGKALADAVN
The description is as above. The following applies: protein: recombinant; chain copies: 2; label: none (EtBr stain); four-way junction of 4 strands, equimolar, one copy each; strands as printed are not perfectly complementary.

Data set [17] deals with the molecule itself. Briefly: cross-linking; glutaraldehyde added to HU-B or its variant alone (no f-LPS); 15% SDS-PAGE, Coomassie Blue G-250 staining.
Data set [18] concerns the molecule itself. Briefly: SEC; Superdex-75 10/300GL on an AKTA Purifier-10; elution at ~12 ml, corresponding to ~25 kDa. (In gel filtration, larger molecules generally elute earlier.)

Values joined by “and” are separate entries in the source; they are usually repeats but may differ in a detail not shown here. Equal values may be shown once.

By stoichiometry N is commonly meant the number of molecules, sites or subunits per partner or assembly.

B1: 4WJ DNA (structured_DNA)
DNA 1: CCCTATAACCCCTGCATTGAATTCCTGTCTGATAA
DNA 2: GTAGTCGTGATAGGTGCAGGGGTTATAGGG
DNA 3: AACAGTAGCTCTTAATTCGAGCTCGCGCCCTATCACGACTA
DNA 4: TTTATCAGACTGGAATTCAAGCGCGAGCTCGAATAAGAGCTACTGT
In the case of B1, the binding result in data set [1] is “binds”; in data set [2], “binds”; in data set [3] it was “binds”; in data set [4], “binds”; in data set [5] it was “no binding”; in [6] it was “no binding”. The binding result in [7] is listed as “binds”; in data set [8], “binds”; in data set [9] it was “no binding”; in data set [10] it was “binds”; in data set [11], “no binding”; in data set [12], “binds”. Moreover, the binding result in [13] is “binds”; in data set [14], “no binding”; in [15], “binds”; in [16], “no binding”.

B2: HU-B WT (6xHis-tagged) (natural protein, E. coli K-12)
chain: MNKSQLIDKIAAGADISKAAAGRALDAIIASVTESLKEGDDVALVGFGTFAVKERAARTGRNPQTGKEITIAAAKVPSFRAGKALKDAVN
notes: HU-B, isoform of the nucleoid-associated histone-like protein HU of E. coli; gene PCR-amplified from E. coli K-12 genomic DNA; ~90 amino acids, ~9.2-kDa polypeptide; Cloned between BamHI and HindIII of pQE-30; also called WT HU; source: E. coli XL-1 Blue (pQE-30), purified (Ni-NTA, 2 M NaCl wash)
With B2, the “stoichiometry N” value in data set [17] was 2 and 4 and 3 and 6.

B3: LysrHU-B (lysine-replaced HU-B, K83A and K86A) (natural protein, E. coli K-12)
chain: MNKSQLIDKIAAGADISKAAAGRALDAIIASVTESLKEGDDVALVGFGTFAVKERAARTGRNPQTGKEITIAAAKVPSFRAGAALADAVN
notes: source: E. coli XL-1 Blue (pQE-30), purified (Ni-NTA, 2 M NaCl wash)
Regarding B3, the “stoichiometry N” value in data set [17] is 4; in [18], 2.

B4: LoodLysrHU-B (loop-deleted and lysine-replaced HU-B) (natural protein, E. coli K-12)
chain: MNKSQLIDKIAAGADISKAAAGRALDAIIASVTESLKEGDDVALVGFGTFASGGGGSGGGGSKVPSFRAGAALADAVN
notes: HU-B of E. coli K-12, the stretch before the deleted loop (residues 52 to 74 deleted); 11-residue glycine/serine-rich linker that replaces residues 52 to 74; HU-B of E. coli K-12, the stretch after the deleted loop, with K83A and K86A (numbers count on unchanged HU-B); Combines the LoodHU-B and LysrHU-B changes; source: E. coli XL-1 Blue (pQE-30), purified (Ni-NTA, 2 M NaCl wash)
As for B4, the “stoichiometry N” value was 4 in data set [17] and 2 in data set [18].

B5: LoodHU-B (loop-deleted HU-B) (natural protein, E. coli K-12)
chain: MNKSQLIDKIAAGADISKAAAGRALDAIIASVTESLKEGDDVALVGFGTFASGGGGSGGGGSKVPSFRAGKALKDAVN
notes: HU-B of E. coli K-12, the stretch before the deleted loop (residues 52 to 74 deleted); 11-residue glycine/serine-rich linker that replaces residues 52 to 74; HU-B of E. coli K-12, the stretch after the deleted loop (residues 52 to 74 deleted); The results call the loop 22 residues long, but residues 52 to 74 are 23 residues; source: E. coli XL-1 Blue (pQE-30), purified (Ni-NTA, 2 M NaCl wash)
With B5, the “stoichiometry N” value in data set [17] was 4; in [18], 2.
